Our source for the stoichiometry N values is article doi:10.1101/2021.11.27.470173.

Where two headings read alike, the source gives them in different places.

Common to all, as to assay: SEC-MALS
(In general: SEC sorts molecules by how far they enter the pores of the column.)

Experiment [1] concerns the target cyanide dihydratase CynD from Bacillus safensis PER-URP-08 (Bacillus safensis PER-URP-08) (UniProt P0DXY3).
Experiment [2] shares this target. This is another data set of the same source.
For experiment [3] the target is unchanged. This is another data set of the same source.

By stoichiometry N is commonly meant a count of units in the complex or per binding partner.

As for “cyanide dihydratase CynD from Bacillus safensis PER-URP-08 (from UniProt P0DXY3 1-330) (enzyme)”, the figures for the stoichiometry N in experiment [1], in experiment [2] and in experiment [3] were 3 to 5 mer, 4 to 6 mer and 24 to 48 mer, respectively.
